This is an account of results in patent publication US20210115143A1.

For assay [1], the target named is CD16a receptor (Fc gamma receptor) (UniProt P08637). As to the kind of experiment: method not stated.
For assay [2], the target named is CD32a receptor (Fc gamma receptor) (UniProt P12318). The experiment in a line: method not stated.
In assay [3] the target is human PD-L1 on primary human cells in the dendritic cell / CD4+ T cell mixed lymphocyte reaction (human) (UniProt Q9NZQ7). The experiment in a line: cell-based or functional assay.
The target in assay [4] is PD-L1-His tagged, human recombinant, HEK293-derived, Phe19-Thr239 (R&D systems Cat #9049-B7-100) (human) (UniProt Q9NZQ7). The experiment in a line: SPR, captured antibody, PD-L1-His in solution. A general note: SPR reads the build-up and loss of mass on a sensor chip optically.
The target in assay [5] is C1q (Sigma, Cat #C1740) (UniProt P02745). As to the kind of experiment: ELISA: antibody coated at 0-25 µg/mL, C1q at 2 µg/mL, anti-C1q-HRP. A general note: An ELISA detects its analyte on a solid surface through an enzyme-linked reagent.
In assay [6] the target is PD-L1-Fc, human IgG Fc fusion protein, human recombinant, HEK293-derived, Phe19-Thr239 (R&D systems Cat #156-B7-100) (human) (UniProt Q9NZQ7). The experiment in a line: SPR (Reichert), PD-L1-Fc immobilized, antibody in solution, 1:1 model, 25 C.
Assay [7] has as its target PD-L1-His tagged, human recombinant, HEK293-derived, Phe19-Thr239 (R&D systems Cat #9049-B7-100) (human) (UniProt Q9NZQ7). The experiment in a line: SPR (Reichert), antibody immobilized directly, PD-L1-His in solution, 1:1 model, 25 C.
The target is the same in assay [8]. The experiment in a line: SPR (Reichert), antibody captured by immobilized anti-human IgG, PD-L1-His in solution, 1:1 model, 25 C.

Chain of PD-L1-His tagged, human recombinant, HEK293-derived, Phe19-Thr239 (R&D systems Cat #9049-B7-100) (human) (Q9NZQ7 19-239 limits assumed): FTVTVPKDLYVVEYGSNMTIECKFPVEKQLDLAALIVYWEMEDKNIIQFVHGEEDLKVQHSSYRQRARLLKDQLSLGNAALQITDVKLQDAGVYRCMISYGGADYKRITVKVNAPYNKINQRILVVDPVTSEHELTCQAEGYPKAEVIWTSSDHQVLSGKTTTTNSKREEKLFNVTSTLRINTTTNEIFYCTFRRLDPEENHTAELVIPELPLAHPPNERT
Chain of CD16a receptor (Fc gamma receptor) (P08637 17-208 limits assumed): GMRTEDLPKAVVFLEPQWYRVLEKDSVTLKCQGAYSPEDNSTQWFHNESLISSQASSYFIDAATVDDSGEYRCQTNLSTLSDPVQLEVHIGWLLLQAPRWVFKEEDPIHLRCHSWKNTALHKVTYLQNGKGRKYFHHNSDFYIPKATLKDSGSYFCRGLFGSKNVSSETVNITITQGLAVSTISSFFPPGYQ
Chain of PD-L1-Fc, human IgG Fc fusion protein, human recombinant, HEK293-derived, Phe19-Thr239 (R&D systems Cat #156-B7-100) (human) (Q9NZQ7 19-239 limits assumed): as the sequence (Q9NZQ7 19-239 limits assumed) above
Chain of C1q (Sigma, Cat #C1740) (P02745 23-245 limits assumed, chain 1 of 3): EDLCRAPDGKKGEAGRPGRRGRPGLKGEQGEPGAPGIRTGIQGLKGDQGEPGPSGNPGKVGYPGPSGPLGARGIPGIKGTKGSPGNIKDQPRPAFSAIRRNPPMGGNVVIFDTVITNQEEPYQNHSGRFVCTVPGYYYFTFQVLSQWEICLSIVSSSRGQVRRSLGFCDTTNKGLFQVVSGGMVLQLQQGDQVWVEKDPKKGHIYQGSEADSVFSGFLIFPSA
Chain of C1q (Sigma, Cat #C1740) (P02746 28-253 limits assumed, chain 2 of 3, further chain): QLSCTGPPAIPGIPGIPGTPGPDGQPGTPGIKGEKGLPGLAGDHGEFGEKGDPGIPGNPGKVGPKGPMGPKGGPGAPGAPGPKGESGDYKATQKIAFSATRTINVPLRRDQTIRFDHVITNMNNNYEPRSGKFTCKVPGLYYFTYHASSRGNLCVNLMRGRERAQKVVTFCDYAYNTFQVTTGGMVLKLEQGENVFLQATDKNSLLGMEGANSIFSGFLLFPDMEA
Chain of C1q (Sigma, Cat #C1740) (P02747 29-245 limits assumed, chain 3 of 3, further chain): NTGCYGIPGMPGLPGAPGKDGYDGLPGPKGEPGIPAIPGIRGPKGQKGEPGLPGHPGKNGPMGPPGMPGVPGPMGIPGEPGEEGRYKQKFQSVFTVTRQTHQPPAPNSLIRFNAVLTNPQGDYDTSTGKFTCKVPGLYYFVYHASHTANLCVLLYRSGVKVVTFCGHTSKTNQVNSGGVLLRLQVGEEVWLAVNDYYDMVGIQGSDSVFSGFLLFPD
Chain of CD32a receptor (Fc gamma receptor) (P12318 36-218): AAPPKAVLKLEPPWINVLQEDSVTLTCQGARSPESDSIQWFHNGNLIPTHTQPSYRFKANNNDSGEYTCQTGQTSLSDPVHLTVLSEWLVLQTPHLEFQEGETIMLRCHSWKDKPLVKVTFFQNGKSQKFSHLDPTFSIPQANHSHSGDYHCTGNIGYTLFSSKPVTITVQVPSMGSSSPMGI
Chain of human PD-L1 on primary human cells in the dendritic cell / CD4+ T cell mixed lymphocyte reaction (human) (Q9NZQ7 19-290): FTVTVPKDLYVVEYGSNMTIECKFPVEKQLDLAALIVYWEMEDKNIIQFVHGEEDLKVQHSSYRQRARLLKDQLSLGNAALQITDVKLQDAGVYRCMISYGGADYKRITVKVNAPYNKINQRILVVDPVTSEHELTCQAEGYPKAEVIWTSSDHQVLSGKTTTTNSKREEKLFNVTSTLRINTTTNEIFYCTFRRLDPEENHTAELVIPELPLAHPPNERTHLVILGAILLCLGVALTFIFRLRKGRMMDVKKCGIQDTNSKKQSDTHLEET

On to “atezolizumab (Tecentriq), Genentech Inc, Lot 3109904 (antibody)”, for which the Kd (commonly a measure of binding affinity in units of concentration) in assay [1] amounted to 16 µM; in assay [2] it was 41 µM; in assay [6], 0.00026 µM; in assay [7], 0.00062 µM; in assay [8] it was 0.00067 µM. For the same substance, the EC50 of IL-2 secretion in mixed lymphocyte reaction (MLR) in assay [3] was 0.0215 µM. Moreover, the binding affinity against that of B60-55-1 (log) in assay [4] was found to be 2 log. For the same substance, in assay [5], the EC50 (usually the midpoint of the concentration-response curve) came to 14.9 µg/mL.
